According to patent publication US20240209065A1 (SINGLOMICS BEIJING DANXU BIOPHARMACEUTICALS, published 2024):

How the values were obtained:
Test in all cases: cell-based or functional assay
[1] = target: S protein of authentic SARS-CoV-2 Omicron BA.2 virus (SARS-CoV-2, UniProt P0DTC2 14-1273)
[2] = target: S protein of authentic SARS-CoV-2 Omicron BA.5 virus (SARS-CoV-2, UniProt P0DTC2 14-1273)
[3] = target: S protein of authentic SARS-CoV-2 Omicron BA.1 virus (SARS-CoV-2, UniProt P0DTC2 14-1273)
[4] = target: S protein (SΔ19) of Omicron BQ.1.1 pseudovirus (SARS-CoV-2, UniProt P0DTC2 14-1254)
[5] = target: S protein (SΔ19) of Omicron BQ.1 pseudovirus (SARS-CoV-2, UniProt P0DTC2 14-1254)

Binder | IC50, microneutralization assay with authentic virus [1] [pM] | fold increase of neutralization activity over parental IgG, authentic virus [1] [fold] | IC50, microneutralization assay with authentic virus [2] [pM] | fold increase of neutralization activity over parental IgG, authentic virus [2] [fold] | IC50, microneutralization assay with authentic virus [3] [pM] | fold increase of neutralization activity over parental IgG, authentic virus [3] [fold] | IC50, pseudovirus assay (HIV platform) [4] [pM] | fold increase of neutralizing activity compared to IgG, pseudovirus [4] [fold] | fold more potent in neutralizing than IgG, authentic virus [2] [fold] | IC50, pseudovirus assay (HIV platform) [5] [pM] | fold increase of neutralizing activity compared to IgG, pseudovirus [5] [fold]
DXP-604 monomeric IgA1 (antibody) heavy: not shown light: DIQLTQSPSFLSASVGDRVTITCRASQGISSDLAWYQQKPGKAPNLLIYAASTLQSGVPSRFSGSGSGTEFTLTISSLQPEDFATYYCQQLNSDLYTFGQGTKLEIKRTVAAPSVFIFPPSDEQLKSGTASVVCLLNNFYPREAKVQWKVDNALQSGNSQESVTEQDSKDSTYSLSSTLTLSKADYEKHKVYACEVTHQGLSSPVTKSFNRGEC | 160 | 17 | 350 | 35.5 | 3430 | 6.7 |  |  |  |  | 
DXP-604 dimeric IgA1 (antibody) heavy: not shown light: DIQLTQSPSFLSASVGDRVTITCRASQGISSDLAWYQQKPGKAPNLLIYAASTLQSGVPSRFSGSGSGTEFTLTISSLQPEDFATYYCQQLNSDLYTFGQGTKLEIKRTVAAPSVFIFPPSDEQLKSGTASVVCLLNNFYPREAKVQWKVDNALQSGNSQESVTEQDSKDSTYSLSSTLTLSKADYEKHKVYACEVTHQGLSSPVTKSFNRGEC not shown | 60 |  | 130 |  | 380 |  | 4880 | 1.8 | 92 | 3200 | 2.6
DXP-604 secretory IgA1 (antibody) heavy: not shown light: DIQLTQSPSFLSASVGDRVTITCRASQGISSDLAWYQQKPGKAPNLLIYAASTLQSGVPSRFSGSGSGTEFTLTISSLQPEDFATYYCQQLNSDLYTFGQGTKLEIKRTVAAPSVFIFPPSDEQLKSGTASVVCLLNNFYPREAKVQWKVDNALQSGNSQESVTEQDSKDSTYSLSSTLTLSKADYEKHKVYACEVTHQGLSSPVTKSFNRGEC chain 1: not shown chain 2: not shown | 30 |  | 90 |  | 440 |  | 1590 | 5.5 |  | 1410 | 6
